Assay results taken from PMC5133369 (Experimental & Molecular Medicine, 2016).
Positions count from the first letter of the chain named.

B1: pCTD-2ndS2 scFv-Fc fusion protein (scFv, V domains shown)
VH: EVQLVESGGGLVQPGGSLRLSCAASGFNIKDTYIHWVRQAPGKGLEWVARIYPTNGYTRYADSVKGRFTISADTSKNTAYLQMNSLRAEDTAVYYCSRDRAQWWEYKNAMDVWGQGTLVTVSS
VL: not shown
B2: pCTD-1stS5 scFv-Fc fusion protein (scFv, V domains shown)
VH: B1 VH with D99G, R100P, A101W, Q102P, W103G, W104S, E105H, Y106H, N108Y
VL: not shown
B3: pCTD-S7S5 scFv-Fc fusion protein (scFv, V domains shown)
VH: EVQLVESGGGLVQPGGSLRLSCAASGFNIKDTYIHWVRQAPGKGLEWVARIYPTNGYTRYADSVKGRFTISADTSKNTAYLQMNSLRAEDTAVYYCSRDPWSRWAKVFDYWGQGTLVTVSS
VL: not shown
B4: pCTD-1stS2 scFv-Fc fusion protein (scFv, V domains shown)
VH: B3 VH with D99G, P100A, W101F, S102W, R103F, W104S, A105R, K106S, V107H
VL: not shown
B5: pCTD-S7 scFv-Fc fusion protein (scFv, V domains shown)
VH: EVQLVESGGGLVQPGGSLRLSCAASGFNIKDTYIHWVRQAPGKGLEWVARIYPTNGYTRYADSVKGRFTISADTSKNTAYLQMNSLRAEDTAVYYCSRGISYPWQRGYYYAMDVWGQGTLVTVSS
VL: not shown
B6: PanCTD scFv-Fc fusion protein (scFv, V domains shown)
VH: EVQLVESGGGLVQPGGSLRLSCAASGFNIKDTYIHWVRQAPGKGLEWVARIYPTNGYTRYADSVKGRFTISADTSKNTAYLQMNSLRAEDTAVYYCSRYGRRGVFDYWGQGTLVTVSS
VL: not shown

What follows are binders tested against RNA polymerase II (largest subunit, with its C-terminal domain) (Homo sapiens, UniProt P24928) (assay: far-Western, overlay or dot blot).

Binding result, binds:
B1, B2, B3, B4, B5, B6
